The text below walks through data of paper PMC6386705.

Assay [1] concerns the target HuR RRM3 (residues 241 to 326) (human), Q15717. Briefly: ITC. To be noted: remark: other sources report otherwise.
For assay [2] the target is unchanged. Briefly: NMR 15N relaxation. Conditions: remark: other sources report otherwise.

B1: HuR RRM3 (residues 241 to 326), Q15717 241-326 (domain or fragment)
chain: SSGWCIFIYNLGQDADEGILWQMFGPFGAVTNVKVIRDFNTNKCKGFGFVTMTNYEEAAMAIASLNGYRLGDKILQVSFKTNKSHK
In assay [1], B1 came in with a Kd of 31.7 µM. Moreover, the stoichiometry N in assay [2] was 2.
